Experimental data reported in patent US5773001 (American Cyanamid Company, dated 1998).
Read-outs that look alike come from different tables or passages of the source. One block for each molecule: values may come before it.

Assays:
CD33 antigen (human) [1] = target: CD33 antigen (human) (UniProt P20138); assay: competition with 125I-labelled native antibody on HEL 92.1.7 cells; IC50 (reference) / IC50 (sample)
CD33 antigen (human) [2] = target: CD33 antigen (human) (UniProt P20138)
CD33 antigen (human) [3] = target: CD33 antigen (human) (UniProt P20138); remark: listed apart in the source
CD33 antigen (human) [4] = target: CD33 antigen (human) (UniProt P20138); remark: listed apart in the source
[5] = target: T1, glycoprotein antigen present on colon cancer cells, recognized by A33 (Homo sapiens (Human)) (UniProt Q99795); assay: competition on Colo205 cells, FACScan; competitor FITC-labelled murine A33
T1 sequence: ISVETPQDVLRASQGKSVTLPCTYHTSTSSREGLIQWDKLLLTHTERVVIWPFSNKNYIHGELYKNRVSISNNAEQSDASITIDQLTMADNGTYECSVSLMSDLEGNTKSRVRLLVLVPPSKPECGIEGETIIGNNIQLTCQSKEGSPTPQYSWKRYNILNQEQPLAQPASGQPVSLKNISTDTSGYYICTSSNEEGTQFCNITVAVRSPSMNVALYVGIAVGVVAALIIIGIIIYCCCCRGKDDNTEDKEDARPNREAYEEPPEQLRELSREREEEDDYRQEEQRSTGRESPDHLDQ

CD33 antigen (human) [6] = target: CD33 antigen (human) (UniProt P20138); remark: listed apart in the source
[7] = target: T1, glycoprotein antigen present on colon cancer cells, recognized by A33 (Homo sapiens (Human)); assay: competition with 125I-labelled native antibody on COLO 205 cells; IC50 (reference) / IC50 (sample)
[8] = target: T1, glycoprotein antigen present on colon cancer cells, recognized by A33 (Homo sapiens (Human))
[9] = target: polyepithelial mucin (PEM) antigen on cells (human) (UniProt P15941); assay: competition with 125I-labelled native antibody on A2780DDP cells; IC50 (reference) / IC50 (sample)
[10] = target: polyepithelial mucin (PEM) antigen on cells (human) (UniProt P15941)
[11] = target: polyepithelial mucin (PEM) antigen on cells (human) (UniProt P15941); remark: listed apart in the source
CD33 antigen (human) [12] = target: CD33 antigen (human) (UniProt P20138); assay: competition with 125I-labelled native antibody on HEL 92.1.7 cells; IC50 (reference) / IC50 (sample); remark: listed apart in the source
CD33 antigen (human) [13] = target: CD33 antigen (human) (UniProt P20138); remark: listed apart in the source

polyepithelial mucin (PEM) antigen on cells (human), sequence (P15941 24-1255): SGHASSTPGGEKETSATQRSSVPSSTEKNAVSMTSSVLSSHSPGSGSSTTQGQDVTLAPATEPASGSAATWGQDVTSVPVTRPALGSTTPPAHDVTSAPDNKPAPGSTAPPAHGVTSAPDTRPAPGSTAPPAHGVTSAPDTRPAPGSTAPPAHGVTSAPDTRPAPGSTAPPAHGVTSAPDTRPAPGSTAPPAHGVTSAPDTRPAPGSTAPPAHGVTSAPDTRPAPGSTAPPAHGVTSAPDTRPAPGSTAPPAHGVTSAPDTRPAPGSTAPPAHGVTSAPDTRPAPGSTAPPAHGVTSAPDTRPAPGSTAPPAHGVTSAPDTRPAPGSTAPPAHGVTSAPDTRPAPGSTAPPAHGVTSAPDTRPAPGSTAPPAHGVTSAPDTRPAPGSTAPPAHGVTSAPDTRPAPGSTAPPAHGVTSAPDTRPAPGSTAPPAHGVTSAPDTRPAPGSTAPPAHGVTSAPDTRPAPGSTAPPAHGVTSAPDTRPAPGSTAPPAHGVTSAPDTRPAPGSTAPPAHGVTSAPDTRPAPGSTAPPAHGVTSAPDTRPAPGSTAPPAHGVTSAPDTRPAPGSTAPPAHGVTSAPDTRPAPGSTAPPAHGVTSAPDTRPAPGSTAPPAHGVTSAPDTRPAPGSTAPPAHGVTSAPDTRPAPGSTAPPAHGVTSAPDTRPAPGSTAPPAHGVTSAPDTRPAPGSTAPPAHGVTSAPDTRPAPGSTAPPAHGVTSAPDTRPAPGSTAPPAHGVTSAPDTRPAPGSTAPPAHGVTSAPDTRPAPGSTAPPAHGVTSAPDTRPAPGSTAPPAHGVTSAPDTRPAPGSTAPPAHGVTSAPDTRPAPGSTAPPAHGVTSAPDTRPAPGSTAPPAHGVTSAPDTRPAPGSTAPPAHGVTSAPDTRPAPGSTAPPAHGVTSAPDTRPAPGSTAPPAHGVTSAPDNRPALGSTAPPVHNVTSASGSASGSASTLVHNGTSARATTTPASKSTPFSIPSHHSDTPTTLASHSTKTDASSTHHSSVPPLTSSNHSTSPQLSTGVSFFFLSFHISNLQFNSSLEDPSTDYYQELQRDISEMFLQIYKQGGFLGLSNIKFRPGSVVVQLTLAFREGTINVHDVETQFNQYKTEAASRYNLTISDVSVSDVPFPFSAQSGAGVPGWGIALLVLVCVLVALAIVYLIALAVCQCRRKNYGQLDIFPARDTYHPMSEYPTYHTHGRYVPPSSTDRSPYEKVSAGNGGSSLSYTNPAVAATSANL

Molecule: Conjugate of 5-(4-acetylphenyl)amino!-5-oxopentanoic acid (24) condensed with Calicheamicin N-acetyl gamma dimethyl hydrazide and m-P67.6 (antibody)
Rel. Affinity (CD33 antigen (human) [1]): 0.73 | In vitro IC50 (3H-thymidine incorporation) (CD33 antigen (human) [3]): < 0.005 ng/mL

Molecule: Conjugate of 5-acetyl-2-(3-carboxypropoxy)benzoic acid (26), methyl ester condensed with Calicheamicin N-acetyl gamma dimethyl hydrazide and h-P67.6 (antibody)
In vitro IC50 (3H-thymidine incorporation) (CD33 antigen (human) [4]): < 0.005 ng/mL | Rel. Affinity (CD33 antigen (human) [1]): 0.79

Molecule: humanized A33 (antibody)
relative potency against the murine antibody [5]: 75%

B2: Conjugate of 4-formylphenoxyacetic acid (1) condensed with Calicheamicin N-acetyl gamma dimethyl hydrazide and m-CT-M-01 (antibody, V domains shown)
VH: QIQLQQSGPELVKPGASVKISCKASGYTFTDYYINWMKQKPGQGLEWIGWIDPGSGNTKYNEKFKGKATLTVDTSSSTAYMQLSSLTSEDTAVYFCAREKTTYYYAMDYWGQGTSVTVSA
VL: DIVMTQAAPSVPVTPGESLSISCRSSKSLLHSNGDTFLYWFLQRPGQSPQLLIYRMSNLASGVPDRFSGSGSGTAFTLRVSRVEAEDVGVYYCMQHLEYPFTFGAGTKLELKR
modifications: drug-linker amide on lysine side chains, sites not stated; drug-linker amide on lysine side chains, sites not stated
Rel. Affinity [9]: 0.84 | In vitro IC50 (3H-thymidine incorporation) [10]: 1.5 ng/mL

B4: Conjugate of 4-4-(4-fluorobenzoyl)phenoxy!butanoic acid (21) condensed with Calicheamicin N-acetyl gamma dimethyl hydrazide and h-P67.6 (antibody, V domains shown)
VH: EVQLVQSGAEVKKPGSSVKVSCKASGYTITDSNIHWVRQAPGQSLEWIGYIYPYNGGTDYNQKFKNRATLTVDNPTNTAYMELSSLRSEDTDFYYCVNGNPWLAYWGQGTLVTVSS
VL: DIQLTQSPSTLSASVGDRVTITCRASESLDNYGIRFLTWFQQKPGKAPKLLMYAASNQGSGVPSRFSGSGSGTEFTLTISSLQPDDFATYYCQQTKEVPWSFGQGTKVEVKR
modifications: drug-linker amide on lysine side chains, sites not stated; drug-linker amide on lysine side chains, sites not stated
Rel. Affinity (CD33 antigen (human) [12]): 0.67 | In vitro IC50 (3H-thymidine incorporation) (CD33 antigen (human) [13]): 99 ng/mL

More lines, now with the values ahead:

Rel. Affinity (CD33 antigen (human) [1]): 1.05 | In vitro IC50 (3H-thymidine incorporation) (CD33 antigen (human) [2]): 4 ng/mL
Molecule: Conjugate of 4-formylbenzoic acid (2) condensed with Calicheamicin N-acetyl gamma dimethyl hydrazide and m-P67.6 (antibody)

Rel. Affinity (CD33 antigen (human) [1]): 1.16 | In vitro IC50 (3H-thymidine incorporation) (CD33 antigen (human) [6]): 0.47 ng/mL
Molecule: Conjugate of 11-(4-acetylphenoxy)undecanoic acid (23) condensed with Calicheamicin N-acetyl gamma dimethyl hydrazide and m-P67.6 (antibody)

Rel. Affinity [7]: 0.68 | In vitro IC50 (3H-thymidine incorporation) [8]: 3.32 ng/mL
B1: Conjugate of 4-(4-acetylphenoxy)butanoic acid (7) condensed with calicheamicin N-acetyl gamma dimethyl hydrazide and m-A33 (antibody, V domains shown)
VH: EVKLVESGGGLVKPGGSLKLSCAASGFAFSTYDMSWVRQTPEKRLEWVATISSGGSYTYYLDSVKGRFTISRDSPRNTLYLQMSSLRSEDTALYYCAPTTVVPFAYWGQGTLVTVSA
VL: DIVMTQSQKFMSTSVGDRVSITCKASQNVRTVVAWYQQKPGQSPKTLIYLASNRHTGVPDRFTGSGSGTDFTLTISNVQSEDLADYFCLQHWSYPLTFGSGTKLEVKR
modifications: drug-linker amide on lysine side chains, sites not stated; drug-linker amide on lysine side chains, sites not stated

Rel. Affinity [9]: 0.9 | In vitro IC50 (3H-thymidine incorporation) [11]: 5.6 ng/mL
B3: Conjugate of 4-formylbenzoic acid (2) condensed with Calicheamicin N-acetyl gamma dimethyl hydrazide and m-CT-M-01 (antibody, V domains shown)
VH: QIQLQQSGPELVKPGASVKISCKASGYTFTDYYINWMKQKPGQGLEWIGWIDPGSGNTKYNEKFKGKATLTVDTSSSTAYMQLSSLTSEDTAVYFCAREKTTYYYAMDYWGQGTSVTVSA
VL: DIVMTQAAPSVPVTPGESLSISCRSSKSLLHSNGDTFLYWFLQRPGQSPQLLIYRMSNLASGVPDRFSGSGSGTAFTLRVSRVEAEDVGVYYCMQHLEYPFTFGAGTKLELKR
modifications: drug-linker amide on lysine side chains, sites not stated; drug-linker amide on lysine side chains, sites not stated
